Measurements: US10662230B2, “Cyclic RGD cell-binding motif and uses thereof” (Spiber Technologies AB, priority 2015, dated 2020)

Tests used:
[1] = Fabrication of cell culture matrices (fiber, film, foam, free-standing film); type: physicochemical
Experimental: Briefly, petri dishes were coated at room temperature with recombinant spider silk solution at a concentration of 0.3 mg/ml to generate films. Foams were made by rapid pipetting of the silk solution, and fibers were formed by gentle wagging in 15 ml tube followed by cutting into smaller pieces.
Free-standing films were prepared by applying of a droplet of protein solution (3 mg/ml) onto a ˜3 mm wide frame of metal wire hanging hooked up in a well of a 96-well plate and allowed to dry over night at 25° C. and 30% rh under sterile conditions.
It was observed that a spider silk protein functionalized with a disulfide-looped RGD motif self-assembles into stable matrices. As shown by the micrographs in FIG. 2a, the FNCC-4RepCT (SEQ ID NO: 13) protein could be presented as matrices in the format of fiber (upper), film (middle) and free standing film (lower). Scale bars in FIG. 2a indicate 500 μm (upper & middle) and 1000 μm (lower). […] The smooth film formats (casted and free-standing) were used in the subsequent cell adhesion experiments to rule out the effects of matrix morphology.

[2] = tested on: Human Mesenchymal stem cells; assay: Cell culture on FNCC silk coatings; type: cell-based; settings: coating 0.1 mg/ml
Experimental: After purification, solutions of FNCC-silk protein (SEQ ID NO: 13) were used to coat cell culture plates (Sarstedt, hydrophobic plates for suspension cells). Briefly, the protein solutions were diluted to 0.1 mg/ml in Tris buffer, and allowed to incubate at room temperature for 30 minutes before removal and wash.
Cells were harvested using trypsination (TrpLE) and seeded onto the FNcc-silk coatings at suitable cell density (3-10 000 cells/cm2). Cell growth was monitored with Alamar Blue cell viability assay (Molecular Probes) regularly (every 2-3 day). At the end point, after 7-14 days, Live/dead staining was performed.

[3] = tested on: dermal keratinocytes (NHEK); assay: Repopulation assay (wound field); type: cell-based, human; settings: 0.9 mm wound field, 6 days of culture
Experimental: To evaluate the ability of the different silk variants to support repopulation of an open would field, dermal keratinocytes (NHEK) were stained with Oregon green cell trace (Life Technologies) before seeded onto films of FNCC-silk (SEQ ID NO: 13) and WT-silk (SEQ ID NO: 2) at 20 000 cells/cm^2 in 24 well plates. Wound field inserts (CytoSelect™ Wound healing assay, Cell Biolabs) were added into the wells before cell seeding to generate a 0.9 mm wide open would field in the cell monolayer, while keeping the film intact. After 16 h the inserts were removed, and the repopulation process were followed each day and documented by inverted fluorescence microscopy at day 0 (insert removal), day 2 and 4. At day 6 cells were fixed and stained according to the assay protocol, and imaged by inverted bright field microscopy.
Thus, green-traced cells were seeded at high density into wells with inserts preventing cells to reach a defined part of the silk-film, the “wound field”. After monolayer formation outside the wound field, the insert was removed, and repopulation of the gap was documented during 6 days of culture, thus allowing both migration and proliferation of cells.

B1: FNCC-silk: recombinant spider silk protein 4RepCT with N-terminal cysteine-looped RGD motif CTGRGDSPAC (SEQ ID NO: 10) (protein)
chain: GPNSCTGRGDSPACGSASGQGGYGGLGQGGYGQGAGSSAAAAAAAAAAAAGGQGGQGQGGYGQGSGGSAAAAAAAAAAAAAAAGRGQGGYGQGSGGNAAAAAAAAAAAAAAAGQGGQGGYGRQSQGAGSAAAAAAAAAAAAAAGSGQGGYGGQGQGGYGQSSASASAAASAASTVANSVSRLSSPSAVSRVSSAVSSLVSNGQVNMAALPNIISNISSSVSASAPGASGCEVIVQALLEVITALVQIVSSSSVGYINPSAVNQITNVVANAMAQVMG
modifications: cyclic disulfide loop; Fusion protein; DISULFID (5)..(14)
For B1, the “formation of free-standing films” value [1] was “possible to form free-standing films”, the “stability and integrity of fibers, film and foam” value [1] was “higher stability and integrity than noted for linear RGD silk proteins (RGD-4RepCT, SEQ ID NO: 16) and WT silk proteins” and the “growth profile (Alamar Blue)” value ([2]; 7-14 days) was “positive growth profile”. The “viable cells at the end point (Live/dead staining)” value ([2]; after 7-14 days) was greater than 80% and the “repopulation of the wound field” value [3] was “efficiently repopulated the wound field on FNCC-silk, which was almost completely covered with cells at the end of the experiment”.
